Reference: article PMC9276948
pKd: −log10 of the molar value.

Target: GST-MoMkk1 (Magnaporthe oryzae) (UniProt G4N6Z6)
Assay: MST

Substance | pKd
His-MoPtc1 (enzyme) | 5.98
His-MoPtc2 (enzyme) | 5.64
